# From patent US8088892B2, “Inhibitors of proteins from the Rho-GEF family” (Centre National de la Recherche Scientifique (C.N.R.S.), priority 2002, dated 2012)
# B1: TRIAPα 9-40: variant of TRIAPα containing TRIPα 9-40 (SEQ ID NO: 8) inserted into the thioredoxin (protein)
# chain: MSDKIIHLTDDSFDTDVLKADGAILVDFWAEWCGPICGYNLATLVMLGPSERVFCPLCEPCSSDIYEGPCKMIAPILDEIADEYQGKLTVAKLNIDQNPGTAPKYGIRGIPTLLLFKNGEVASATKVGALSKGQLKEFLDANLA
# B2: TRIAPα 9-38: variant of TRIAPα containing TRIPα 9-38 (SEQ ID NO: 10) inserted into the thioredoxin (protein)
# chain: MSDKIIHLTDDSFDTDVLKADGAILVDFWAEWCGPICGYNLATLVMLGPSERVFCPLCEPCSSDIGPCKMIAPILDEIADEYQGKLTVAKLNIDQNPGTAPKYGIRGIPTLLLFKNGEVASATKVGALSKGQLKEFLDANLA
# B3: TRIAPα 9-34: variant of TRIAPα containing TRIPα 9-34 (SEQ ID NO: 14) inserted into the thioredoxin (protein)
# chain: MSDKIIHLTDDSFDTDVLKADGAILVDFWAEWCGPICGYNLATLVMLGPSERVFCPLCEPCGPCKMIAPILDEIADEYQGKLTVAKLNIDQNPGTAPKYGIRGIPTLLLFKNGEVASATKVGALSKGQLKEFLDANLA
# B4: TRIAPα 9-33: variant of TRIAPα containing TRIPα 9-33 (SEQ ID NO: 16) inserted into the thioredoxin (protein)
# chain: MSDKIIHLTDDSFDTDVLKADGAILVDFWAEWCGPICGYNLATLVMLGPSERVFCPLCEPGPCKMIAPILDEIADEYQGKLTVAKLNIDQNPGTAPKYGIRGIPTLLLFKNGEVASATKVGALSKGQLKEFLDANLA
# B5: TRIAPα 9-42: variant of TRIAPα containing TRIPα 9-42 (SEQ ID NO: 6) inserted into the thioredoxin (protein)
# chain: MSDKIIHLTDDSFDTDVLKADGAILVDFWAEWCGPICGYNLATLVMLGPSERVFCPLCEPCSSDIYELMGPCKMIAPILDEIADEYQGKLTVAKLNIDQNPGTAPKYGIRGIPTLLLFKNGEVASATKVGALSKGQLKEFLDANLA
# B6: TRIAPα 9-36: variant of TRIAPα containing TRIPα 9-36 (SEQ ID NO: 12) inserted into the thioredoxin (protein)
# chain: MSDKIIHLTDDSFDTDVLKADGAILVDFWAEWCGPICGYNLATLVMLGPSERVFCPLCEPCSSGPCKMIAPILDEIADEYQGKLTVAKLNIDQNPGTAPKYGIRGIPTLLLFKNGEVASATKVGALSKGQLKEFLDANLA
# B7: TRIAPα 1-33: variant of TRIAPα containing TRIPα 1-33 (SEQ ID NO: 18) inserted into the thioredoxin (protein)
# chain: MSDKIIHLTDDSFDTDVLKADGAILVDFWAEWCGPAREGADGAICGYNLATLVMLGPSERVFCPLCEPGPCKMIAPILDEIADEYQGKLTVAKLNIDQNPGTAPKYGIRGIPTLLLFKNGEVASATKVGALSKGQLKEFLDANLA
# Target: TrioGEFD2 (Homo sapiens, UniProt O75962)
# Experiment: In vitro guanine nucleotide exchange (GEF) assay on RhoA
# Assay type: biochemical
# Parameters: using recombinant GST-TrioGEFD2 (a.a. 1848-2298), TrioDH2 (a.a. 1848-2096); made in house
# Conditions: 20-fold molar excess (8 μM) inhibitor, 0.4 μM GST-GEFD2, 0.3 μM [3H]GDP-RhoA, 15 min
# Procedure: For that purpose, aptamers, TrioGEFD2 and RhoA are expressed as GST-fusion proteins. RhoA is loaded with ^3H-GDP, and the release of GDP is followed after addition of GEFD2 in presence or in absence of the selected aptamers (as described in Debant et al., 1996).
# A 20-fold molar excess (8 μM) of GST-aptamers TRIAPα, TRIAPβ (another TrioGEFD2 binding aptamer), TRIAPγ (another TrioGEFD2 binding aptamer) or the empty thioredoxine (Trx) were pre-incubated with 0.4 μM GST-GEFD2 (left side of FIG. 2A) or 0.4 μM GST-DH2 (right side of FIG. 2A), as indicated, before adding 0.3 μM of [^3H]GDP loaded GST-RhoA. The exchange activity was monitored by the decrease of [^3H]GDP bound-RhoA after 15 min (see Materials and Methods). The amount of [^3H]GDP bound-RhoA incubated without GEF (first bar on the left) was defined as 100% The values and errors bars were calculated from at least three independent experiments.
# 0.4 μM GST-GEFD2 were incubated with increasing amounts of GST-TRIAPα (grey bars) or GST (black bars), and the exchange assay was then performed on 0.3 μM RhoA, as described in A.
# An in vitro guanine nucleotide exchange (GEF) assay was used to test whether the TrioGEFD2-binding aptamers could inhibit the catalytic activity of TrioGEFD2 towards RhoA. For this purpose, the aptamers TRIAPα, TRIAPβ and TRIAPγ (including the Trx gene) were excised from pEG202 as EcoRI/NotI fragments and cloned into pGEX4T1 EcoRI/NotI. The aptamers were then expressed and purified from bacteria as GST fusion proteins, using standard procedures (Smith and Johnson, 1988). GTPase-GST fusion proteins were prepared, loaded with [^3H]GDP and the guanine nucleotide release assays were performed as described (Debant et al., 1996), using recombinant GST-TrioGEFD2 (a.a. 1848-2298), TrioDH2 (a.a. 1848-2096). For each point, 0.3 μM GTPase was mixed with or without 0.4 μM GEF in presence of non-labeled GTP, and the reaction mix was filtered after 0 min and 15 mm reaction at 25° C. The catalytic activity of TrioGEFD2 was thus measured by the decrease of the GTPase-associated radioactivity. The results are expressed as the ratio “exchange after 15 min over exchange after 0 min” (% bound [^3H]GDP-RhoA). To measure the effect of the aptamers on the exchange activity, a 20-fold molar excess of GST-TRIAPs was pre-incubated with GEFD2 (or GEFD1) for 30 min on ice before the exchange assay was carried out. For each experiment, data were obtained in triplicate.
row,Inhibition of TrioGEFD2 exchange activity on RhoA in vitro,Molecule
1,displayed fill inhibitory activity,B1
2,displayed fill inhibitory activity,B2
3,displayed fill inhibitory activity,B3
4,had a reduced activity,B4
5,did not alter its inhibitory effect,B5
6,displayed fill inhibitory activity,B6
7,displayed fill inhibitory activity,B7
